# Laboratory results published in patent US20180155451A1 (published 2018).
# B1: GpH7-B3 variant K334_03V/GpL16-k0 (antibody, human IgG1, kappa)
# heavy: not shown
# light: DIVMTQSPLSLPVTPGEPASISCQASESLVHSNRNTYLHWYLQKPGQSPQLLIYKVSNRFSGVPDRFSGSGSGTDFTLKISRVEAEDVGVYYCSQNTHVPPTFGQGTKVEIERTVAAPSVFIFPPSDEQLKSGTASVVCLLNNFYPREAKVQWKVDNALQSGNSQESVTEQDSKDSTYSLSSTLTLSKADYEKHKVYACEVTHQGLSSPVTKSFNRGEC
# notes: homodimerized IgG1, mutation in both H chains; also called Ho Ab
# B2: GpH7-B3 variant K334_04F/GpL16-k0 (antibody, human IgG1, kappa)
# heavy: not shown
# light: DIVMTQSPLSLPVTPGEPASISCQASESLVHSNRNTYLHWYLQKPGQSPQLLIYKVSNRFSGVPDRFSGSGSGTDFTLKISRVEAEDVGVYYCSQNTHVPPTFGQGTKVEIERTVAAPSVFIFPPSDEQLKSGTASVVCLLNNFYPREAKVQWKVDNALQSGNSQESVTEQDSKDSTYSLSSTLTLSKADYEKHKVYACEVTHQGLSSPVTKSFNRGEC
# notes: as for B1
# B3: GpH7-B3 variant K334_05P/GpL16-k0 (antibody, human IgG1, kappa)
# heavy: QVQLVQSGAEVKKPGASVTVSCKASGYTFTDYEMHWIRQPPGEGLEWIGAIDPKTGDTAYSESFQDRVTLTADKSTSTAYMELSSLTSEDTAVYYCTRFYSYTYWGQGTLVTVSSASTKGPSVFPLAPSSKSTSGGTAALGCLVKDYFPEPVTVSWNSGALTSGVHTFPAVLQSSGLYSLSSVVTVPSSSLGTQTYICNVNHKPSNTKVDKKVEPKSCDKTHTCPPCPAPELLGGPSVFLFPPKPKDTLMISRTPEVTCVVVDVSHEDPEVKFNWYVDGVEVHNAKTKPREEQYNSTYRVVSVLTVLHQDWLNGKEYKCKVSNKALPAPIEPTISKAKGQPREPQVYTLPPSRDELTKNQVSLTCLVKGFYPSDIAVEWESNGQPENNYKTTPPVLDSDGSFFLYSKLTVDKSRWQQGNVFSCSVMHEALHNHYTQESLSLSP
# light: DIVMTQSPLSLPVTPGEPASISCQASESLVHSNRNTYLHWYLQKPGQSPQLLIYKVSNRFSGVPDRFSGSGSGTDFTLKISRVEAEDVGVYYCSQNTHVPPTFGQGTKVEIERTVAAPSVFIFPPSDEQLKSGTASVVCLLNNFYPREAKVQWKVDNALQSGNSQESVTEQDSKDSTYSLSSTLTLSKADYEKHKVYACEVTHQGLSSPVTKSFNRGEC
# notes: as for B1
# B4: GpH7-B3 variant K334_07I/GpL16-k0 (antibody, human IgG1, kappa)
# heavy: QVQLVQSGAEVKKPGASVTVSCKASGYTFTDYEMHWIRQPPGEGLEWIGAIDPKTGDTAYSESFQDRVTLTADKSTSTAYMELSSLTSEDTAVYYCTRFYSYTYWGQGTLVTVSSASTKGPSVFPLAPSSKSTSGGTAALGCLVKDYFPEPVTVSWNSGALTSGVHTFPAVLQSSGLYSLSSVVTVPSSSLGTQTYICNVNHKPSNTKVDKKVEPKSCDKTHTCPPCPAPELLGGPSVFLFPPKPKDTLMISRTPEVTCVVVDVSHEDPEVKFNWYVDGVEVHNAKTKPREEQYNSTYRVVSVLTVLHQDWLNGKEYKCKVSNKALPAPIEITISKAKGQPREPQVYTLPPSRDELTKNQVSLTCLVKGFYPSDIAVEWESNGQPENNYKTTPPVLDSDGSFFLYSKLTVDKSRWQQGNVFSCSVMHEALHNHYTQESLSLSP
# light: DIVMTQSPLSLPVTPGEPASISCQASESLVHSNRNTYLHWYLQKPGQSPQLLIYKVSNRFSGVPDRFSGSGSGTDFTLKISRVEAEDVGVYYCSQNTHVPPTFGQGTKVEIERTVAAPSVFIFPPSDEQLKSGTASVVCLLNNFYPREAKVQWKVDNALQSGNSQESVTEQDSKDSTYSLSSTLTLSKADYEKHKVYACEVTHQGLSSPVTKSFNRGEC
# notes: as for B1
# B5: GpH7-B3 variant K334_08L/GpL16-k0 (antibody, human IgG1, kappa)
# heavy: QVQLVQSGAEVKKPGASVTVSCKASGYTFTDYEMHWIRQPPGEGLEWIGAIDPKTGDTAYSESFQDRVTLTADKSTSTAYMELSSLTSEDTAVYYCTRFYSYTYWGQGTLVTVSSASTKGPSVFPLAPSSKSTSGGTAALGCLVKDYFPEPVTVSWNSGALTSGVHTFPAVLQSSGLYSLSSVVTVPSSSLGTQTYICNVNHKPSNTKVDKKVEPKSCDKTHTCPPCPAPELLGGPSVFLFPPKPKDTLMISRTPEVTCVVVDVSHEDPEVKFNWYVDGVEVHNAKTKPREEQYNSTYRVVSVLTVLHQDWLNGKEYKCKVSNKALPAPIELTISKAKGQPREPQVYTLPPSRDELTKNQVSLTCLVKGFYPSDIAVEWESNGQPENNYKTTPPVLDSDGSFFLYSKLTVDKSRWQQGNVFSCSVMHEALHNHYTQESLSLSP
# light: DIVMTQSPLSLPVTPGEPASISCQASESLVHSNRNTYLHWYLQKPGQSPQLLIYKVSNRFSGVPDRFSGSGSGTDFTLKISRVEAEDVGVYYCSQNTHVPPTFGQGTKVEIERTVAAPSVFIFPPSDEQLKSGTASVVCLLNNFYPREAKVQWKVDNALQSGNSQESVTEQDSKDSTYSLSSTLTLSKADYEKHKVYACEVTHQGLSSPVTKSFNRGEC
# notes: as for B1
# B6: GpH7-B3 variant K334_09D/GpL16-k0 (antibody, human IgG1, kappa)
# heavy: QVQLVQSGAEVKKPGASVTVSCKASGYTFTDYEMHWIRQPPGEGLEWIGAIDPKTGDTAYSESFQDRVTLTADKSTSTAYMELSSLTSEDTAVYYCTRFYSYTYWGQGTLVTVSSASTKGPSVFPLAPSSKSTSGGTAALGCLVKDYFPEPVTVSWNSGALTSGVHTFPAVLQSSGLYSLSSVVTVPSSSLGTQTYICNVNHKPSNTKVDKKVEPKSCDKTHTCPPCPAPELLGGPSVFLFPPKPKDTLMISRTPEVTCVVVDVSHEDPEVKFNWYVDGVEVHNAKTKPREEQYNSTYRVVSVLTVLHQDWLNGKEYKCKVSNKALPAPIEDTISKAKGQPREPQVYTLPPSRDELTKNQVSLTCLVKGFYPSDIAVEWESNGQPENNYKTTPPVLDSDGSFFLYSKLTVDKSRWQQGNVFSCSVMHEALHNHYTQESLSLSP
# light: DIVMTQSPLSLPVTPGEPASISCQASESLVHSNRNTYLHWYLQKPGQSPQLLIYKVSNRFSGVPDRFSGSGSGTDFTLKISRVEAEDVGVYYCSQNTHVPPTFGQGTKVEIERTVAAPSVFIFPPSDEQLKSGTASVVCLLNNFYPREAKVQWKVDNALQSGNSQESVTEQDSKDSTYSLSSTLTLSKADYEKHKVYACEVTHQGLSSPVTKSFNRGEC
# notes: as for B1
# B7: GpH7-B3 variant K334_10E/GpL16-k0 (antibody, human IgG1, kappa)
# heavy: not shown
# light: DIVMTQSPLSLPVTPGEPASISCQASESLVHSNRNTYLHWYLQKPGQSPQLLIYKVSNRFSGVPDRFSGSGSGTDFTLKISRVEAEDVGVYYCSQNTHVPPTFGQGTKVEIERTVAAPSVFIFPPSDEQLKSGTASVVCLLNNFYPREAKVQWKVDNALQSGNSQESVTEQDSKDSTYSLSSTLTLSKADYEKHKVYACEVTHQGLSSPVTKSFNRGEC
# notes: as for B1
# B8: GpH7-B3 variant K334_13S/GpL16-k0 (antibody, human IgG1, kappa)
# heavy: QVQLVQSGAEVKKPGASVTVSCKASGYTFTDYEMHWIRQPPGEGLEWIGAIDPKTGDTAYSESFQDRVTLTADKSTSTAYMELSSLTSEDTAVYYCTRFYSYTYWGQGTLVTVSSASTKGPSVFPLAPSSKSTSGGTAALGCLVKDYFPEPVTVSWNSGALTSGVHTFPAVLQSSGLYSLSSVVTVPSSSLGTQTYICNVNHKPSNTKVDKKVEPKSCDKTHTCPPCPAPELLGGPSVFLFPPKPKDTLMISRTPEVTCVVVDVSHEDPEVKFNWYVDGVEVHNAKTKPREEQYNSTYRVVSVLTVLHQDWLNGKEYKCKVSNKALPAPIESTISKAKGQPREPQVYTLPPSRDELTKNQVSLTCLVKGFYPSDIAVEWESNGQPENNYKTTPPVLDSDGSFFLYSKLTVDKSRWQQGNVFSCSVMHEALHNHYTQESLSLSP
# light: DIVMTQSPLSLPVTPGEPASISCQASESLVHSNRNTYLHWYLQKPGQSPQLLIYKVSNRFSGVPDRFSGSGSGTDFTLKISRVEAEDVGVYYCSQNTHVPPTFGQGTKVEIERTVAAPSVFIFPPSDEQLKSGTASVVCLLNNFYPREAKVQWKVDNALQSGNSQESVTEQDSKDSTYSLSSTLTLSKADYEKHKVYACEVTHQGLSSPVTKSFNRGEC
# notes: as for B1
# B9: GpH7-B3 variant K334_14T/GpL16-k0 (antibody, human IgG1, kappa)
# heavy: not shown
# light: DIVMTQSPLSLPVTPGEPASISCQASESLVHSNRNTYLHWYLQKPGQSPQLLIYKVSNRFSGVPDRFSGSGSGTDFTLKISRVEAEDVGVYYCSQNTHVPPTFGQGTKVEIERTVAAPSVFIFPPSDEQLKSGTASVVCLLNNFYPREAKVQWKVDNALQSGNSQESVTEQDSKDSTYSLSSTLTLSKADYEKHKVYACEVTHQGLSSPVTKSFNRGEC
# notes: as for B1
# B10: GpH7-B3 variant K334_15Y/GpL16-k0 (antibody, human IgG1, kappa)
# heavy: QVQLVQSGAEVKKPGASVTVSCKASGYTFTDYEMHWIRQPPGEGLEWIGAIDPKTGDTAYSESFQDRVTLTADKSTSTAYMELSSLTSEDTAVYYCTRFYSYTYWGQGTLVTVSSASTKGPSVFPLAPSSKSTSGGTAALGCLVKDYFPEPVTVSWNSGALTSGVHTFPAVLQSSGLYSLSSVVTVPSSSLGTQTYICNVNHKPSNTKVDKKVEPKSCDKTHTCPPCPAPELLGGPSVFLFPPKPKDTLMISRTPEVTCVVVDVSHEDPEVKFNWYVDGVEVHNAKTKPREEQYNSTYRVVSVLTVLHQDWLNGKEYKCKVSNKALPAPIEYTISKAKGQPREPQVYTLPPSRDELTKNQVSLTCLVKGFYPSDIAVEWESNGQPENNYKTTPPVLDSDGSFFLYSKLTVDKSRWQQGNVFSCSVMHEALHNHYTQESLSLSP
# light: DIVMTQSPLSLPVTPGEPASISCQASESLVHSNRNTYLHWYLQKPGQSPQLLIYKVSNRFSGVPDRFSGSGSGTDFTLKISRVEAEDVGVYYCSQNTHVPPTFGQGTKVEIERTVAAPSVFIFPPSDEQLKSGTASVVCLLNNFYPREAKVQWKVDNALQSGNSQESVTEQDSKDSTYSLSSTLTLSKADYEKHKVYACEVTHQGLSSPVTKSFNRGEC
# notes: as for B1
# B11: GpH7-B3 variant K334_16H/GpL16-k0 (antibody, human IgG1, kappa)
# heavy: not shown
# light: DIVMTQSPLSLPVTPGEPASISCQASESLVHSNRNTYLHWYLQKPGQSPQLLIYKVSNRFSGVPDRFSGSGSGTDFTLKISRVEAEDVGVYYCSQNTHVPPTFGQGTKVEIERTVAAPSVFIFPPSDEQLKSGTASVVCLLNNFYPREAKVQWKVDNALQSGNSQESVTEQDSKDSTYSLSSTLTLSKADYEKHKVYACEVTHQGLSSPVTKSFNRGEC
# notes: as for B1
# B12: GpH7-B3 variant K334_18N/GpL16-k0 (antibody, human IgG1, kappa)
# heavy: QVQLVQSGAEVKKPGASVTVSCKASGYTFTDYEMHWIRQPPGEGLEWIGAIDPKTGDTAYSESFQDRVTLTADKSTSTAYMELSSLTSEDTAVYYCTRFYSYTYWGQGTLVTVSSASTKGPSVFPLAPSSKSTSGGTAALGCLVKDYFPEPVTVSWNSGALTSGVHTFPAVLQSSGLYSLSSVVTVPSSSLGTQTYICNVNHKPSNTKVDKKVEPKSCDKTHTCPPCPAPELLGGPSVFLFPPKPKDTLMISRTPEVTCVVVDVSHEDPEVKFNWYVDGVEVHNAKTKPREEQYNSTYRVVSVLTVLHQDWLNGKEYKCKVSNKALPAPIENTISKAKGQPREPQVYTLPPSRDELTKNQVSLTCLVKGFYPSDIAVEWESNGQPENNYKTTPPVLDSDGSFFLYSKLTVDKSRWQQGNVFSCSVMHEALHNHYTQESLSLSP
# light: DIVMTQSPLSLPVTPGEPASISCQASESLVHSNRNTYLHWYLQKPGQSPQLLIYKVSNRFSGVPDRFSGSGSGTDFTLKISRVEAEDVGVYYCSQNTHVPPTFGQGTKVEIERTVAAPSVFIFPPSDEQLKSGTASVVCLLNNFYPREAKVQWKVDNALQSGNSQESVTEQDSKDSTYSLSSTLTLSKADYEKHKVYACEVTHQGLSSPVTKSFNRGEC
# notes: as for B1
# B13: GpH7-B3 variant K334_19Q/GpL16-k0 (antibody, human IgG1, kappa)
# heavy: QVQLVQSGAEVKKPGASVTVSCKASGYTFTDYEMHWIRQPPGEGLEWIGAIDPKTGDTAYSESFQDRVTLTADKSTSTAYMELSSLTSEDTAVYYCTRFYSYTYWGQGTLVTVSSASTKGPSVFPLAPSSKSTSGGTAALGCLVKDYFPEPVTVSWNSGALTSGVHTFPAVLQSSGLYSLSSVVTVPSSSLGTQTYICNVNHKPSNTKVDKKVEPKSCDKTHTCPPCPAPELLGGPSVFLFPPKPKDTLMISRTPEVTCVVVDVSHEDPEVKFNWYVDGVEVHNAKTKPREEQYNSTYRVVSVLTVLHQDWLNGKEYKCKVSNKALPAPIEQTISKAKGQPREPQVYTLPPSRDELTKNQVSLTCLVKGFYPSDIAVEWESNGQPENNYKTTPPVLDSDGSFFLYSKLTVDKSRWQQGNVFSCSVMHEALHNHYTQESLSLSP
# light: DIVMTQSPLSLPVTPGEPASISCQASESLVHSNRNTYLHWYLQKPGQSPQLLIYKVSNRFSGVPDRFSGSGSGTDFTLKISRVEAEDVGVYYCSQNTHVPPTFGQGTKVEIERTVAAPSVFIFPPSDEQLKSGTASVVCLLNNFYPREAKVQWKVDNALQSGNSQESVTEQDSKDSTYSLSSTLTLSKADYEKHKVYACEVTHQGLSSPVTKSFNRGEC
# notes: as for B1
# B14: GpH7-B3 variant Q295_02A/GpL16-k0 (antibody, human IgG1, kappa)
# heavy: not shown
# light: DIVMTQSPLSLPVTPGEPASISCQASESLVHSNRNTYLHWYLQKPGQSPQLLIYKVSNRFSGVPDRFSGSGSGTDFTLKISRVEAEDVGVYYCSQNTHVPPTFGQGTKVEIERTVAAPSVFIFPPSDEQLKSGTASVVCLLNNFYPREAKVQWKVDNALQSGNSQESVTEQDSKDSTYSLSSTLTLSKADYEKHKVYACEVTHQGLSSPVTKSFNRGEC
# notes: as for B1
# B15: GpH7-B3 variant Q295_10E/GpL16-k0 (antibody, human IgG1, kappa)
# heavy: not shown
# light: DIVMTQSPLSLPVTPGEPASISCQASESLVHSNRNTYLHWYLQKPGQSPQLLIYKVSNRFSGVPDRFSGSGSGTDFTLKISRVEAEDVGVYYCSQNTHVPPTFGQGTKVEIERTVAAPSVFIFPPSDEQLKSGTASVVCLLNNFYPREAKVQWKVDNALQSGNSQESVTEQDSKDSTYSLSSTLTLSKADYEKHKVYACEVTHQGLSSPVTKSFNRGEC
# notes: as for B1
# B16: GpH7-B3 variant Q295_14T/GpL16-k0 (antibody, human IgG1, kappa)
# heavy: not shown
# light: DIVMTQSPLSLPVTPGEPASISCQASESLVHSNRNTYLHWYLQKPGQSPQLLIYKVSNRFSGVPDRFSGSGSGTDFTLKISRVEAEDVGVYYCSQNTHVPPTFGQGTKVEIERTVAAPSVFIFPPSDEQLKSGTASVVCLLNNFYPREAKVQWKVDNALQSGNSQESVTEQDSKDSTYSLSSTLTLSKADYEKHKVYACEVTHQGLSSPVTKSFNRGEC
# notes: as for B1
# B17: GpH7-B3 variant S239_09D/GpL16-k0 (antibody, human IgG1, kappa)
# heavy: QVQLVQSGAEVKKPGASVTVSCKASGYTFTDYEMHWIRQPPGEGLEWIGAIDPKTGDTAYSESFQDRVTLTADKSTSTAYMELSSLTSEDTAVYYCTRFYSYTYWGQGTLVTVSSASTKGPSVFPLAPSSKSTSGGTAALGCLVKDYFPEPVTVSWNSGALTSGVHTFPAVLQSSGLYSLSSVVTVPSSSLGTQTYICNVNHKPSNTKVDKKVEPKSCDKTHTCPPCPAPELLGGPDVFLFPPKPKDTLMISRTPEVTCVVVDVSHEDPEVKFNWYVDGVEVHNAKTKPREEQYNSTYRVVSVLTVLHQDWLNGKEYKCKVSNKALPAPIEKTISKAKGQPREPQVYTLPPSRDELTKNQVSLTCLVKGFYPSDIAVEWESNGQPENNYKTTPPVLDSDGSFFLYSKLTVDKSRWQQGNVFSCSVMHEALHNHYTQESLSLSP
# light: DIVMTQSPLSLPVTPGEPASISCQASESLVHSNRNTYLHWYLQKPGQSPQLLIYKVSNRFSGVPDRFSGSGSGTDFTLKISRVEAEDVGVYYCSQNTHVPPTFGQGTKVEIERTVAAPSVFIFPPSDEQLKSGTASVVCLLNNFYPREAKVQWKVDNALQSGNSQESVTEQDSKDSTYSLSSTLTLSKADYEKHKVYACEVTHQGLSSPVTKSFNRGEC
# notes: as for B1
# B18: GpH7-B3 variant S267_02A/GpL16-k0 (antibody, human IgG1, kappa)
# heavy: not shown
# light: DIVMTQSPLSLPVTPGEPASISCQASESLVHSNRNTYLHWYLQKPGQSPQLLIYKVSNRFSGVPDRFSGSGSGTDFTLKISRVEAEDVGVYYCSQNTHVPPTFGQGTKVEIERTVAAPSVFIFPPSDEQLKSGTASVVCLLNNFYPREAKVQWKVDNALQSGNSQESVTEQDSKDSTYSLSSTLTLSKADYEKHKVYACEVTHQGLSSPVTKSFNRGEC
# notes: as for B1
# B19: GpH7-B3 variant S267_09D/GpL16-k0 (antibody, human IgG1, kappa)
# heavy: not shown
# light: DIVMTQSPLSLPVTPGEPASISCQASESLVHSNRNTYLHWYLQKPGQSPQLLIYKVSNRFSGVPDRFSGSGSGTDFTLKISRVEAEDVGVYYCSQNTHVPPTFGQGTKVEIERTVAAPSVFIFPPSDEQLKSGTASVVCLLNNFYPREAKVQWKVDNALQSGNSQESVTEQDSKDSTYSLSSTLTLSKADYEKHKVYACEVTHQGLSSPVTKSFNRGEC
# notes: as for B1
# B20: GpH7-B3 variant S298_14T/GpL16-k0 (antibody, human IgG1, kappa)
# heavy: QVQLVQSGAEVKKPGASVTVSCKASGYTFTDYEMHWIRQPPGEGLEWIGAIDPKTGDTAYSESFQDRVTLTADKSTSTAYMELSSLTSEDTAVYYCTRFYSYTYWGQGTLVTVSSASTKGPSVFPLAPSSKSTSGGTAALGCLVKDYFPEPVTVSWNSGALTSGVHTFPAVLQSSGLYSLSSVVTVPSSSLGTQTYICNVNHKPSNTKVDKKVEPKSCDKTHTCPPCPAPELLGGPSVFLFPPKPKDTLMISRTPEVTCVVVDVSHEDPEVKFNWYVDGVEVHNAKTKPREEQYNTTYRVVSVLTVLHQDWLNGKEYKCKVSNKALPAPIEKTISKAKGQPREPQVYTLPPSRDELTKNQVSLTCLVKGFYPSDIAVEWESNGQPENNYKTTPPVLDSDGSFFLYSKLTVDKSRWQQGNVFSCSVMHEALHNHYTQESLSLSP
# light: DIVMTQSPLSLPVTPGEPASISCQASESLVHSNRNTYLHWYLQKPGQSPQLLIYKVSNRFSGVPDRFSGSGSGTDFTLKISRVEAEDVGVYYCSQNTHVPPTFGQGTKVEIERTVAAPSVFIFPPSDEQLKSGTASVVCLLNNFYPREAKVQWKVDNALQSGNSQESVTEQDSKDSTYSLSSTLTLSKADYEKHKVYACEVTHQGLSSPVTKSFNRGEC
# notes: as for B1
# B21: GpH7-B3 variant S337_09D/GpL16-k0 (antibody, human IgG1, kappa)
# heavy: not shown
# light: DIVMTQSPLSLPVTPGEPASISCQASESLVHSNRNTYLHWYLQKPGQSPQLLIYKVSNRFSGVPDRFSGSGSGTDFTLKISRVEAEDVGVYYCSQNTHVPPTFGQGTKVEIERTVAAPSVFIFPPSDEQLKSGTASVVCLLNNFYPREAKVQWKVDNALQSGNSQESVTEQDSKDSTYSLSSTLTLSKADYEKHKVYACEVTHQGLSSPVTKSFNRGEC
# notes: as for B1
# B22: GpH7-B3 variant S337_10E/GpL16-k0 (antibody, human IgG1, kappa)
# heavy: not shown
# light: DIVMTQSPLSLPVTPGEPASISCQASESLVHSNRNTYLHWYLQKPGQSPQLLIYKVSNRFSGVPDRFSGSGSGTDFTLKISRVEAEDVGVYYCSQNTHVPPTFGQGTKVEIERTVAAPSVFIFPPSDEQLKSGTASVVCLLNNFYPREAKVQWKVDNALQSGNSQESVTEQDSKDSTYSLSSTLTLSKADYEKHKVYACEVTHQGLSSPVTKSFNRGEC
# notes: as for B1
# Target: T1, FcγRIIIa extracellular domain with C-terminal His tag (human, UniProt P08637 17-208)
# T1 construct: extracellular domain; also called FcgRIIIa; 3a
# Test: SPR, relative to GpH7-B3/GpL16-k0
# T1 sequence (P08637 17-208): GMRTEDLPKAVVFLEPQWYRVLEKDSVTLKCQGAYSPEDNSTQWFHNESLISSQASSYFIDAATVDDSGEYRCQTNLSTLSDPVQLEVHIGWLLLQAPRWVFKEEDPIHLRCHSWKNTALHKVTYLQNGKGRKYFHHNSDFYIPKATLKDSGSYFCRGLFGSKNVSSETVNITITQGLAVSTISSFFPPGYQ
row,Binder,Ho/Con_3a
1,B1,170 % of control (=100)
2,B2,168 % of control (=100)
3,B3,165 % of control (=100)
4,B4,180 % of control (=100)
5,B5,178 % of control (=100)
6,B6,150 % of control (=100)
7,B7,206 % of control (=100)
8,B8,153 % of control (=100)
9,B9,163 % of control (=100)
10,B10,181 % of control (=100)
11,B11,153 % of control (=100)
12,B12,156 % of control (=100)
13,B13,150 % of control (=100)
14,B14,108 % of control (=100)
15,B15,111 % of control (=100)
16,B16,108 % of control (=100)
17,B17,192 % of control (=100)
18,B18,145 % of control (=100)
19,B19,160 % of control (=100)
20,B20,107 % of control (=100)
21,B21,106 % of control (=100)
22,B22,100 % of control (=100)
